Tested on: O=C(O)C(=O)CC1(C(=O)O)C=CC(O)C=C1
Test: purified protein
Type: biochemical, Planktothrix agardhii
Details: non-aromatizing decarboxylation to endocyclic diene H2HPP

AerD (Planktothrix agardhii NIVA-CYA 126/8)
Km: 170 ± 3 µM
kcat: 4.08 ± 0.017 s⁻¹
